Laboratory results as given in PMC8622905, “Structural Effects of Disease-Related Mutations in Actin-Binding Period 3 of Tropomyosin” (Molecules, 2021).

B1: Tpm3.12_(65–155) (domain or fragment)
chain: not shown
modifications: disulfide bond between the Cys residues of the N-terminal fusion sequences of the two chains (non-reducing conditions)
notes: tropomyosin Tpm3.12 (human skeletal isoform, TPM3), residues 65-155, numbered as in full-length Tpm3.12; Cloned in pET15b between NdeI and BamHI; One sentence of the methods prints 65–165; also called Tpm3.12 peptide; wild-type Tpm3.12_(65–155); source: His-tag removed with thrombin; not shown: His-tag, N-terminal, cleaved
B2: Tpm1.1_(64–154) (domain or fragment)
chain: not shown
modifications: disulfide bond between the Cys residues of the N-terminal fusion sequences of the two chains (non-reducing conditions)
notes: tropomyosin Tpm1.1 (human skeletal isoform, TPM1), residues Leu64 to Ile154; Cloned in pET15b between NdeI and BamHI; also called Tpm1.1 peptide; wild-type Tpm1.1_(64–154); source: His-tag removed with thrombin; not shown: His-tag, N-terminal, cleaved
B3: Tpm3.12_(65–155)R91C (domain or fragment)
chain: not shown
modifications: oxidized Cys residues (disulfide between the N-terminal Cys of the two chains)
notes: tropomyosin Tpm3.12 (human, TPM3), residues 65-155 with the congenital myopathy mutation R91C; source: His-tag removed with thrombin; not shown: His-tag, N-terminal, cleaved
B4: Tpm3.12_(65–155)R91P (domain or fragment)
chain: not shown
modifications: oxidized Cys residues (disulfide between the N-terminal Cys of the two chains)
notes: tropomyosin Tpm3.12 (human, TPM3), residues 65-155 with the congenital myopathy mutation R91P; source: His-tag removed with thrombin; not shown: His-tag, N-terminal, cleaved
B5: Tpm1.1_(64–154)V95A (domain or fragment)
chain: not shown
modifications: oxidized Cys residues (disulfide between the N-terminal Cys of the two chains)
notes: tropomyosin Tpm1.1 (human, TPM1), residues 64-154 with the cardiomyopathy mutation V95A; source: His-tag removed with thrombin; not shown: His-tag, N-terminal, cleaved
B6: Tpm1.1_(64–154)I92T (domain or fragment)
chain: not shown
modifications: oxidized Cys residues (disulfide between the N-terminal Cys of the two chains)
notes: tropomyosin Tpm1.1 (human, TPM1), residues 64-154 with the cardiomyopathy mutation I92T; source: His-tag removed with thrombin; not shown: His-tag, N-terminal, cleaved

Biological target: the molecule itself
Experiment: cross-linking; disulfide cross-link through the N-terminal Cys, seen on SDS-polyacrylamide gel; Laemmli solution without β-mercaptoethanol, with or without 3 min at 100 °C

Stoichiometry N, 2:
B1, B2

Biological target: the molecule itself
Experiment: mass spectrometry; molecular weights of the purified peptides compared with theoretical MWs calculated in Expasy; Liquid Chromatography and Mass Spectrometry Laboratory

Stoichiometry N, 2:
B3, B4, B5, B6
